Measured values reported in the supplement of paper PMC12764529.
± gives the half width of the 95% confidence interval.

Key:
[1] = folding stability dG unfold from trypsin proteolysis; higher = more stable
In short: (§1)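 K50 was inferred by Bayesian fitting of sequencing counts obtained after protease digestion of designed mini-proteins. Unfolding free energy was derived by comparison with a sequence-predicted unfolded-state K50 and a shared folded-state K50, for each protease or both combined. The mini-proteins were under 80 residues, had no cysteine, were carried in a PA-tagged cDNA display construct, and were kept only if AlphaFold2 dimer inter-PAE exceeded 15.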

[2] = folding stability dG unfold from chymotrypsin proteolysis; higher = more stable
In short: as §1

[3] = folding stability dG unfold (combined trypsin and chymotrypsin); higher = more stable
In short: as §1

Sequence | folding stability dG unfold [1] [kcal/mol] | folding stability dG unfold [2] [kcal/mol] | folding stability dG unfold [3] [kcal/mol]
SAGGSELENMSLEELLARAEELARELAEETGRTVTVTVEVRVRLPDGSTRTFRFTVTLTVLREEDLSAGGSA [r2_157_TrROS_Hall] | 3.93 ± 0.12 | 4.739 ± 0.04 | 4.519 ± 0.041
SAGGSAGGSAGGLEELKKGFKKPVFVAKIEKEVRLLPNGDLIVRYKIEGPDLELELVFSSAGGSAGGSAGGS [r10_160_TrMRF] | 2.6 ± 0.12 | 3.56 ± 0.14 | 3.28 ± 0.12
SAGGKTVVLEFDSVEDLKAALPPGAEVEIVVIREDGSKKTITVPAKDLKLELKPGEKYRVVIKVKPKKSAGG [r13_461_TrROS_Hall] | 1.5 ± 0.09 | 2.49 ± 0.084 | 2.17 ± 0.12
SAGGSAGGSAGGSDNDGAKPPKIKVEIHPVNMPPGDIVVHNDHYVIAFPNGWFFVIRPKSAGGSAGGSAGGS [r4_394_TrROS] | 0.911 ± 0.064 | 1.61 ± 0.16 | 1.32 ± 0.14
SAGGSAGGSANWKEIDGTLPWGLRVKVWVSPGNGQLMIEIKPVPPPPPPKISPEDADKANADSAGGSAGGSA [r18_236_TrROS] | 2.31 ± 0.072 | 4.06 ± 0.13 | 3.39 ± 0.3
SAGGSAGGSAGGDNTKTLVLVIKVDENVTPEEIKKKLKDLGFKNVKIEKVGNYAVVTVSSAGGSAGGSAGGS [r10_868_TrMRF] | 2.58 ± 0.074 | 3.149 ± 0.03 | 2.92 ± 0.052
SAGGSAGGSKPEIRKIKIYTKEGGKKIIPVNGTVIEIDGKKYKVKPNDKIKVPKNVKKIEPEGSAGGSAGGS [r12_779_TrMRF] | -0.395 ± 0.25 | 0.153 ± 0.19 | 0.028 ± 0.22
SAGGSAGGSKKPIPVKVIETKPDPEIGGITTVELEFPDGSKATFTSIEDIEKIPDIEVEIKLGSAGGSAGGS [r20_192_TrMRF] | 0.591 ± 0.027 | 0.639 ± 0.043 | 0.648 ± 0.056
SAGGSAGGSMTFEILPDGKTKTLTLDEAKELILNEVPPDTTVVNLDTGKVISAEEFLKLLGIKVSAGGSAGG [r6_937_JUSTAS] | 0.998 ± 0.016 | 0.943 ± 0.084 | 0.998 ± 0.084
SAGGSAGGSAGGWIRNKDGKPVKLEIYPFPVEMWMYRKKPDGGWEPHPMRMPFTFIRITPSAGGSAGGSAGG [r7_90_TrROS] | 1.59 ± 0.049 | 1.55 ± 0.11 | 1.65 ± 0.11
SGMMRTIVLKIPIEEARKLLGDPNKPVSEEELKALVEKLAKEKGLDVEEIKVEKLPDGTYVVTVLVPDLGSA [r9_52_JUSTAS] | 3.06 ± 0.12 | 4.12 ± 0.076 | 3.81 ± 0.099
SAGGSMTTTTVTVTDPAGNTTTYTFPSSVPLEEIVEAVSKALGRPVTVLSVTTDPSGTTTVTLAVPGSAGGS [r8_285_JUSTAS] | 4.33 ± 0.3 | 5.131 ± 0.047 | 5.17 ± 0.13
SAGGSAGGSALKPGEPITIIFLFKEPNGRPYIMVIEIEVNPDGGIKIKGMEMITLEDLDKISAGGSAGGSAG [r3_212_TrROS] | 2.97 ± 0.21 | 4.54 ± 0.19 | 4.43 ± 0.25
SAGGSAGGSAGMKTLKTTTKVFPGTGVIVTESLVEFPNGSLKKLTKVTYVKNPNPSTTLASAGGSAGGSAGG [r17_41_JUSTAS] | 0.474 ± 0.093 | 0.545 ± 0.14 | 0.602 ± 0.19
SAGGSAGGSPIEEIVAELKVPPGTTVKFPDGSTITLNSREDLLKLAKEGYPPEKLKDITVEAVSAGGSAGGS [r12_430_JUSTAS] | 0.308 ± 0.071 | 1.08 ± 0.059 | 0.856 ± 0.089
SAGGSAGGGMKVKKIEIKKDPNNPNIYTITIELEDEPIEYTVPPSTPTTIKKPGGKPLYSSPLPSAGGSAGG [r6_922_JUSTAS] | -0.626 ± 0.24 | 0.986 ± 0.26 | 0.567 ± 0.15
SAGGSAGGSMKVYKLPGGYTVTVEPVDGGTLVTITLPDGSVKTKFVPPDEPVVVDPNGAKITVSAGGSAGGS [r12_281_JUSTAS] | 1.85 ± 0.071 | 2.55 ± 0.036 | 2.29 ± 0.077
SAGGDKKKVKIHIFPPPGMPMDNFANYIQDQLGWDRNNIKVEPMDSPQEAERRAEKNGKPEIVIFFRSAGGS [r8_245_TrROS] | -0.216 ± 0.31 | 1.02 ± 0.54 | 0.456 ± 0.32
SAGGSAGGSEKIKEALKELGYDVEIEEIEVKKNKNGKLEIKIKLKPGMSEEEKKRIEEALKKLSAGGSAGGS [r12_352_TrROS_Hall] | 3.18 ± 0.4 | 2.79 ± 0.17 | 2.84 ± 0.3
SAGGMLPGLRPLLLAVLVPAEEPLEPEQVRELAEELRRELEEKGYGFAFRAIELEDFQLIIVDVVDPFSAGG [r13_442_TrMRF] | 2.54 ± 0.051 | 3.429 ± 0.03 | 3.11 ± 0.051
SAGGSAGGSAGGGMKVEKEESPDSTVTETITDPSSENTTIVTKEVLPDGSLKVTETKELPSAGGSAGGSAGG [r7_828_JUSTAS] | -0.224 ± 0.087 | 0.987 ± 0.06 | 0.717 ± 0.14

Sequence | folding stability dG unfold [1] [kcal/mol] | folding stability dG unfold [2] [kcal/mol] | folding stability dG unfold [3] [kcal/mol]
SAGGSAGGSAGKAKIVKIEKVKNKNGETYYIIKLEGKKEIFVIKDKNGKKKKIPLKELKPSAGGSAGGSAGG [r17_286_TrROS_Hall] | 1.42 ± 0.043 | 2.37 ± 0.026 | 2.11 ± 0.048
SAMTYTLTPAGGKTITVTLNPDGSITITSTSTSSSLPLSPDAKITSVTFDAATGTITITLNSKPITIPASAG [r14_276_JUSTAS] | 1.9 ± 0.057 | 1.74 ± 0.17 | 1.92 ± 0.15
SAGGSAGGSIKPGQKVKIEIKVEEVDGKLVITAKVYNKDGKLIYEAEIVIENGKIKEVKITPPSAGGSAGGS [r12_264_TrROS_Hall] | 2.58 ± 0.16 | 3.11 ± 0.31 | 2.9 ± 0.34
SAGGSAGGSAPMEIWVLIDSPEKAKDLAKEIAHELQQSGIKIKVEVEQPPNGYYLVKIRFDSAGGSAGGSAG [r3_211_TrROS] | 1.89 ± 0.14 | 1.81 ± 0.11 | 1.91 ± 0.22
SWWYMVKIEIENGGKPIKIPVPVNDLDDFIDNAREAIPPDLADQLPPNMEVEVEVMPIPRVDPENGKPRPSA [r9_111_TrROS] | 0.866 ± 0.054 | 1.42 ± 0.15 | 1.1 ± 0.15
SAGGPKIKIEAFPDGTVKITIELPDGVTIVIELKFDPETGTVHAKITLLPKDKPVTFEFTFKIPPDASAGGS [r16_230_TrMRF] | 3.34 ± 0.35 | 4.34 ± 0.11 | 4.29 ± 0.41
SAMVVIPFPKDTPPEVALEAVRKAVREAAENGIVPEKIVVVAHPDLVFLVDSLVEAGIPLENVEFVPSESAG [r14_589_TrMRF] | 2.87 ± 0.069 | 2.86 ± 0.057 | 2.88 ± 0.052
SWYIIRIEIKIRNPKDGKSFDIEIMIHAPVEEAKEIAKEIASMFPGMRVEVKITEVMPMPPMTPEQLEKMSA [r9_421_TrROS] | 2.23 ± 0.081 | 3.721 ± 0.027 | 3.25 ± 0.076
SAGGMRIRIVVPPEMSPEEIAELLKKLFPDYEIKVEVKTVKVKVKDEETGEEYEVEVLVVEIEIKEKSAGGS [r16_828_TrROS_Hall] | 3.61 ± 0.18 | 3.78 ± 0.12 | 3.74 ± 0.14
SAGGSAGGSAKPKPVETVEVTVTGKDGKKYKVTVVYDEKTGKLYVKYNGKIYKVDSLEEALKSAGGSAGGSA [r18_67_TrROS_Hall] | 2.44 ± 0.19 | 4.12 ± 0.073 | 3.86 ± 0.2
SAGGSGRQMVRNIVRHALDQQQQHGKPIDKIYIFGPPNMRKEIKKELEEEGLPPGVKITIVPAEDMQSAGGS [r16_164_TrROS] | 0.761 ± 0.13 | 0.101 ± 0.51 | 0.326 ± 0.37
SAELLDALKKNGWTIRIPIKHPGNGETWPMPFRIEPDGDGWKISIPPPNGKPHPFKIEDIEIMPPEDLKSAG [r14_427_TrROS] | 0.723 ± 0.11 | 0.406 ± 0.42 | 0.561 ± 0.2
SAGGSAGGSAGGSMVKVEKNGEGVVTTTTKYFFYPSTGKWSSETITTTKKVPKDEPFPLSAGGSAGGSAGGS [r4_215_JUSTAS] | -0.159 ± 0.14 | -0.0539 ± 0.33 | -0.0856 ± 0.23
SAGGSAGGSMYIVRIEVVNEETGKTEEIELEVSEEEAEELAKELAEKLPNIKEIKVEIRPLPESAGGSAGGS [r12_757_TrROS_Hall] | 1.37 ± 0.15 | 1.96 ± 0.051 | 1.66 ± 0.21
SAGGSLTAEWDTSTGTVRLTFPDGSVVELPFPTSGAVVRATVDGDKVTIEVLDKDNPKVVARFTFDLGSAGG [r13_938_TrMRF] | 3.79 ± 0.2 | 4.74 ± 0.15 | 4.37 ± 0.19
SAGGSAGGSAGGKPLYLRITVKNKDGSEREIVVPLDTTIDDILAALPPNVTEVKIEVFPVSAGGSAGGSAGG [r7_288_TrROS_Hall] | 3.36 ± 0.11 | 3.52 ± 0.13 | 3.52 ± 0.13
SAGMTTTVTLKAPDGTTATVTIPPDGNAVMTIETPEGTSTRTVPVPADVSIEEILKEYPNYTIVSREAASAG [r5_259_JUSTAS] | 1.26 ± 0.037 | 2.05 ± 0.021 | 1.82 ± 0.041
SAGGTMKYDVEQKYKYPDPDGNPGGEGKHTQEVEVPPPPVIIIPPNDRELAKELAEKFGIPITPDDIASAGG [r19_315_TrROS] | 0.854 ± 0.18 | 0.5 ± 0.25 | 0.609 ± 0.39
SAVVSVDPATGVVTAKVKVDDTELTVTITRDPATGAWPVTFTPPGSGTPVVLDVPFTSVEEAIELAKRLSAG [r14_803_JUSTAS] | 1.54 ± 0.02 | 1.56 ± 0.036 | 1.59 ± 0.05
SAGGEEEEFEVVAEIEIEVDGKTYTITIVRDKETDEYRVEIRNKETGETKTITVSAEELEELLKALSSAGGS [r8_469_TrROS_Hall] | 3.17 ± 0.36 | 4.77 ± 0.32 | 4.77 ± 0.52
SAGGSAGGSAGGGMIPVSTSETVVPGPSRLVRRTTTTYRDPVTGKLYTTSSTTVLPPAASAGGSAGGSAGGS [r10_190_JUSTAS] | -0.396 ± 0.12 | 1.44 ± 0.064 | 0.963 ± 0.045
